Results reported in publication PMC11201802 (Protein Science : A Publication of the Protein Society, 2024).

Columns and labels:
Test in all cases: crystal structure
Fab^S1CE1-EPR-1 = target: Fab^S1CE1-EPR-1
Fab^S1CE3-EPR-1 = target: Fab^S1CE3-EPR-1
Fab^S1CE4-EPR-1 = target: Fab^S1CE4-EPR-1
[1] = target: extracellular domain (ECD) of the human erythropoietin receptor (EPOR) with a C-terminal hexahistidine tag (human, UniProt P19235)
Chain of extracellular domain (ECD) of the human erythropoietin receptor (EPOR) with a C-terminal hexahistidine tag (P19235 25-250): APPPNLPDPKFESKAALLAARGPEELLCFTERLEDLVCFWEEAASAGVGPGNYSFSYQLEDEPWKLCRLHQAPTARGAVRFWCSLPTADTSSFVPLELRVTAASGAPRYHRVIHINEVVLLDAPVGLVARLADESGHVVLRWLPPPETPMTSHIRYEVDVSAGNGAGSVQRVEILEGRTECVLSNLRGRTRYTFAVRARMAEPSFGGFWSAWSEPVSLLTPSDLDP

B1: Fab^S1CE1-EPR-1 (Fab, V domains shown)
VH: EVQLVESGGGLVQPGGSLRLSCAASGFNLRSYYMHWVRQAPGKGLEWVASISPYYSYTYYADSVKGRFTISADTSKNTAYLQMNSLRAEDTAVYYCARHGYGAMDYWGQGTLVTVFN
VL: DIQMTQSPSSLSASVGDRVTITCRASQSVSSAVAWYQQKPGKAPKLLIYSASSLYSGVPSRFSGSRSGTDFTLTISSLQPEDFATYYCQQSSYSLITFGQGTKVEIK
stoichiometry N (Fab^S1CE1-EPR-1): 2

B2: Fab^S1CE3-EPR-1 (Fab, V domains shown)
VH: EVQLVESGGGLVQPGGSLRLSCAASGFNLRSYYMHWVRQAPGKGLEWVASISPYYSYTYYADSVKGRFTISADTSKNTAYLQMNSLRAEDTAVYYCARHGYGAMDYWGQGTLVTVFN
VL: DIQMTQSPSSLSASVGDRVTITCRASQSVSSAVAWYQQKPGKAPKLLIYSASSLYSGVPSRFSGSRSGTDFTLTISSLQPEDFATYYCQQSSYSLITFGQGTKVEIK
stoichiometry N (Fab^S1CE3-EPR-1): 2

B3: Fab^S1CE4-EPR-1 (Fab, V domains shown)
VH: EVQLVESGGGLVQPGGSLRLSCAASGFNLRSYYMHWVRQAPGKGLEWVASISPYYSYTYYADSVKGRFTISADTSKNTAYLQMNSLRAEDTAVYYCARHGYGAMDYWGQGTLVTVFN
VL: DIQMTQSPSSLSASVGDRVTITCRASQSVSSAVAWYQQKPGKAPKLLIYSASSLYSGVPSRFSGSRSGTDFTLTISSLQPEDFATYYCQQSSYSLITFGQGTKVEIK
stoichiometry N (Fab^S1CE4-EPR-1): 2

B4: Fab^S1CE-EPR-1 (Fab, V domains shown)
VH: EVQLVESGGGLVQPGGSLRLSCAASGFNLRSYYMHWVRQAPGKGLEWVASISPYYSYTYYADSVKGRFTISADTSKNTAYLQMNSLRAEDTAVYYCARHGYGAMDYWGQGTLVTVFN
VL: DIQMTQSPSSLSASVGDRVTITCRASQSVSSAVAWYQQKPGKAPKLLIYSASSLYSGVPSRFSGSRSGTDFTLTISSLQPEDFATYYCQQSSYSLITFGQGTKVEIK
binding result [1]: binds
